Results reported in the supplement of paper PMC9732359.
± gives the uncertainty stated by the source.

Test: protein stability index of a GFP-peptide fusion (yeast GPS) (PSI 1-4); higher = more stable; sorted into four equal gates, so the index is relative within each strain
Method in brief: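 Plasmids in a pooled yeast library fused tiled 17-residue yeast protein peptides downstream of GFP and also expressed Cherry. Mid-log cultures grown without leucine were sorted into four equal gates by GFP/Cherry fluorescence ratio. Each gate's plasmids were PCR-amplified and Illumina-sequenced, and reads were matched to strains by barcodes. The protein stability index is derived by multiplying each gate's read frequency by its gate number and summing the results.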

Sequence | protein stability index (doa10∆) | protein stability index (pdr5∆) | protein stability index (san1∆) | protein stability index (ubr1∆)
GYMQKPVYATIGVETGS [PRP28] | 1.47 ± 0.25 | 2.23 ± 0.21 | 1.68 ± 0.19 | 1.77 ± 0.19
DPVSGAILVPMTVNDQP [YJR042W/NUP85] | 1.95 ± 0.18 | 2.03 ± 0.16 | 2.28 ± 0.087 | 2.4 ± 0.085
DMSKILVDQGFNYSGKD [RET1] | 3.36 ± 0.073 | 3.31 ± 0.065 | 3.31 ± 0.04 | 3.49 ± 0.042
QRETYDSNESDDDVTPS [YLR335W/NUP2] | 1.99 ± 0.1 | 2.43 ± 0.2 | 2.37 ± 0.15 | 2.65 ± 0.18
QKLFVQVSNFAPQVYII [GAL11] | 2.62 ± 0.077 | 2.45 ± 0.061 | 2.86 ± 0.065 | 2.32 ± 0.049
SKPSTASPSAHTSSSDG [RPN4] | 2.71 ± 0.064 | 3.04 ± 0.064 | 2.66 ± 0.05 | 2.92 ± 0.045
SNQERCHDEGNDMLQRN [RRI1] | 3.33 ± 0.075 | 3.2 ± 0.11 | 3.35 ± 0.098 | 3.16 ± 0.076
NLNDAGLALQLFKKLKE [RPN2] | – | 2.69 ± 0.23 | 2.51 ± 0.24 | 3.19 ± 0.28
KNYTTETDNEMNGNGKP [SIR3] | 3.24 ± 0.078 | 3.37 ± 0.054 | 3.48 ± 0.043 | 3.22 ± 0.055
QDLNQRFQDPYVAIVVD [RRI1] | – | 2.79 ± 0.11 | 2.29 ± 0.15 | 2.71 ± 0.12
IKKEEGKIDEAADILCE [RPN5] | 3.1 ± 0.096 | 2.69 ± 0.12 | 2.95 ± 0.11 | 2.52 ± 0.069
LEKLIFDMTNHYNDSQQ [SRB8] | 2.82 ± 0.053 | 2.23 ± 0.045 | 2.47 ± 0.065 | 2.51 ± 0.036
SENQRQIFCVFSGKGVH [GRR1] | 2.94 ± 0.073 | 2.5 ± 0.065 | 2.62 ± 0.053 | 2.76 ± 0.046
MKHLGRSEGNPVIGVFQ [FAS2] | – | 2.78 ± 0.08 | 2.9 ± 0.094 | 3.01 ± 0.093
SLCTVWKPNPSYDVENV [SRB5] | 2.47 ± 0.097 | 2.03 ± 0.098 | 2.08 ± 0.19 | 1.84 ± 0.082
DSTPEEVSCKLLETITY [YML103C/NUP188] | 2.47 ± 0.077 | 2.82 ± 0.086 | 2.47 ± 0.075 | 2.79 ± 0.092
SGDREVQRTMLELLNQL [RPT5] | 3.28 ± 0.12 | 2.73 ± 0.28 | 3.12 ± 0.12 | 3.21 ± 0.1
VIKLAKYPDYFPEWKKS [ARP9] | 3 ± 0.098 | 2.94 ± 0.091 | 2.82 ± 0.064 | 3.27 ± 0.13
DTFRWVGKKSAPEKDIW [RPO31] | 2.79 ± 0.095 | 2.88 ± 0.11 | 2.9 ± 0.067 | 3.15 ± 0.061
AEVQSLFQDGSASLHTR [RRP4] | 2.57 ± 0.13 | 2.78 ± 0.16 | 2.85 ± 0.1 | –
FVRQAAMIALSMILIQQ [RPN2] | 1.35 ± 0.083 | 1.75 ± 0.17 | 1.48 ± 0.19 | 1.82 ± 0.14
STFTKHLIKCFFKITLQ [ITC1] | 1.43 ± 0.039 | 1.28 ± 0.03 | 1.51 ± 0.058 | 1.6 ± 0.03
RKHRNAQFAGRASIEYY [DIS3] | 2.99 ± 0.13 | 3.11 ± 0.072 | 2.8 ± 0.13 | 2.99 ± 0.094
DFNEIVQYLSGAHGNSD [POP3] | 1.24 ± 0.096 | 1.22 ± 0.14 | 1.18 ± 0.21 | 1.28 ± 0.11
SMTAVPKPLKFLRPTYP [RPN1] | 2.33 ± 0.058 | 2.21 ± 0.064 | 1.85 ± 0.069 | 2.47 ± 0.064

Sequence | protein stability index (doa10∆) | protein stability index (pdr5∆) | protein stability index (san1∆) | protein stability index (ubr1∆)
MVTSNVVLVSGEGERFT [SKP1] | 2.11 ± 0.14 | 2.56 ± 0.086 | 2.26 ± 0.12 | 1.73 ± 0.081
IALRNGQSSVKHEDFVE [RPT5] | 2.89 ± 0.19 | – | 3.23 ± 0.14 | 3.41 ± 0.16
RFTKFSDTLKEFKIEQN [YDL116W/NUP84] | 1.74 ± 0.076 | 1.74 ± 0.081 | 1.42 ± 0.18 | 1.45 ± 0.058
FKNDFNSFYYTSLLYLS [RPN9] | 1.33 ± 0.049 | 1.81 ± 0.073 | 2.19 ± 0.11 | 1.25 ± 0.099
NRRKQSFVLNKNTIDFE [RPN4] | 2.86 ± 0.062 | 1.74 ± 0.045 | 2.1 ± 0.075 | 1.88 ± 0.044
KVLNEISKTTLTLDPRY [RPN3] | 2.88 ± 0.085 | 2.99 ± 0.055 | 2.89 ± 0.05 | 3.2 ± 0.069
STKKKILGIHTSKMNLS [RPT2] | 3.47 ± 0.13 | 3.21 ± 0.096 | 3.42 ± 0.071 | 3.05 ± 0.073
VQSKARYTVRTFGIRRN [RPL11A] | 1.78 ± 0.083 | 1.86 ± 0.073 | 1.35 ± 0.11 | 1.53 ± 0.086
LKIYYKEEFSSDESIER [RRI2] | – | 2.43 ± 0.15 | 2 ± 0.23 | 2.9 ± 0.11
ASKVLLKIFLYLESLFA [IRR1] | – | – | 2.02 ± 0.24 | –
VTTKDDLSGADIQAMCT [RPT2] | 3.15 ± 0.07 | 3.3 ± 0.09 | 3.28 ± 0.038 | 3.35 ± 0.06
LKNYVLNELHPTLPTNH [PRP8] | 2.73 ± 0.047 | 3.04 ± 0.054 | 2.53 ± 0.064 | 2.67 ± 0.031
QRKTVNSDDILSLHENY [POP1] | 2.55 ± 0.053 | 2.65 ± 0.069 | 2.54 ± 0.068 | 2.92 ± 0.039
LFGEKSILGKFCPIVEE [YCS4] | 1.55 ± 0.041 | 1.74 ± 0.052 | 1.57 ± 0.11 | 1.73 ± 0.039
KPGIPRGNTKIHSMNEN [SIR3] | 3.23 ± 0.2 | 2.9 ± 0.22 | 3.32 ± 0.098 | 3.23 ± 0.12
MADLQKQENSSRFTNVS [YMR153W/NUP53] | 3.23 ± 0.15 | 3.1 ± 0.14 | 2.36 ± 0.24 | 3.31 ± 0.12
TNHVLEVFSVLGIEAAR [RPO31] | 2.21 ± 0.19 | 2.4 ± 0.11 | 2.77 ± 0.076 | 3.02 ± 0.24
RNKSAANNDINSLLSNF [YDL088C/ASM4] | 2.94 ± 0.15 | 3.07 ± 0.095 | 2.99 ± 0.091 | 3.02 ± 0.056
LHYIPKYNRYEKRHKNV [RPS11A] | 2.06 ± 0.063 | 1.74 ± 0.054 | 1.78 ± 0.089 | 2.26 ± 0.05
LLLKDQQTAKKLIPKLY [ECM29] | 2.1 ± 0.054 | 2.46 ± 0.061 | 2.32 ± 0.096 | 1.66 ± 0.053
RIPFSERKLKFSNRFLP [FAS1] | 1.28 ± 0.084 | 1.17 ± 0.077 | 1.11 ± 0.13 | 1.31 ± 0.084
AALAPKIGPLGLSPKKV [RPL12A] | 2.66 ± 0.13 | 3.08 ± 0.097 | 3.02 ± 0.097 | 3.26 ± 0.07
DGGYNAQLAKAKTELNE [SMC2] | 2.64 ± 0.092 | 1.94 ± 0.058 | 1.44 ± 0.072 | 1.5 ± 0.038
KLSQMILDKIFYGVLDQ [RPN6] | 2.83 ± 0.13 | 2.99 ± 0.12 | 2.92 ± 0.062 | 2.86 ± 0.11
KELDALQEKEQLYFKKK [ISW2] | 3.22 ± 0.11 | 3.15 ± 0.14 | 3.24 ± 0.25 | 3.55 ± 0.11
